Positively stained cells (%) and MFI data for three substances are collected here from patent US20120093787A1.

Test [1] concerns the target wild-type CXCR4 isoform B (X4b-WT), expressed on CXCR4-/- B4 SupT1 cells by lentiviral transduction (UniProt P61073). Description: flow cytometry on X4b WT B4 SupT1 transfectants, PE goat anti-mIgG detection. (Flow cytometry measures light scatter and fluorescence of single cells or particles in a stream.)
The target in test [2] is C34-CXCR4 isoform B fusion protein (C34-X4b), expressed on CXCR4-/- B4 SupT1 cells by lentiviral transduction (Pan troglodytes (Chimpanzee)) (UniProt P61072). As to the kind of experiment: flow cytometry on C34-X4b B4 SupT1 transfectants, PE goat anti-mIgG detection.
Sequence of UniProt P61072 (P61072 1-352, tags or fused parts left off): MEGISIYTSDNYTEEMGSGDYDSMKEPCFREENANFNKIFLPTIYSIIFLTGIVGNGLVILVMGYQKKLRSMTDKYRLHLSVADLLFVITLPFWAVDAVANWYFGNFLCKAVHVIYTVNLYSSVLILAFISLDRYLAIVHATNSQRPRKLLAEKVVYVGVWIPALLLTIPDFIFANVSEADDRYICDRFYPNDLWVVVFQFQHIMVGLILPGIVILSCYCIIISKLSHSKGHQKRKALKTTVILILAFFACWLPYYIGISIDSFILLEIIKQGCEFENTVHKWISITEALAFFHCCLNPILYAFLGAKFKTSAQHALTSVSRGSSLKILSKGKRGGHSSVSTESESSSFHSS

Sequence of UniProt P61073 (P61073 whole entry, the tested form may be a part, canonical isoform): as the sequence (P61072 1-352, tags or fused parts left off) above

Consider isotype control mIgG2a (antibody), for which the positively stained cells (%) is 0.98% in test [1] and 0.39% in test [2].
As to “anti-CXCR4 monoclonal antibody 12G5 (BD Biosciences)”, in test [1], the MFI was found to be 214 MFI and the positively stained cells (%) came out at 95.8%. Further, in test [2], the MFI amounted to 253 MFI and the positively stained cells (%) worked out at 96.6%.
Regarding isotype control mIgG1 (antibody), the positively stained cells (%) in test [1] and in test [2] was 0% throughout.
